Changes are numbered by the printed parent chain.
T1: mouse IL-17A (mouse, UniProt Q62386 26-158)
T1 sequence (looked up): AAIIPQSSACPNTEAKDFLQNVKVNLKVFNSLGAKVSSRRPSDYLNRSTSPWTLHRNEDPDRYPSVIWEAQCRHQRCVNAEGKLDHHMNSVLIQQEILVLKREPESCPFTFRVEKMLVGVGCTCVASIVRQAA

T2: rat IL-17A (rat, UniProt Q61453 18-150, limits assumed)
T2 construct: made in E. coli, bought
T2 sequence (looked up): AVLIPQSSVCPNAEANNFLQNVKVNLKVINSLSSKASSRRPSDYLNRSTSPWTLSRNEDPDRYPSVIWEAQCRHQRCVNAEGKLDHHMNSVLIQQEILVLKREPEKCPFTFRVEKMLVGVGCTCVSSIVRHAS

T3: human IL-17D (human, UniProt Q8TAD2 18-202, limits assumed)
T3 construct: expressed in E. coli; also called hIL-17D
T3 sequence (looked up): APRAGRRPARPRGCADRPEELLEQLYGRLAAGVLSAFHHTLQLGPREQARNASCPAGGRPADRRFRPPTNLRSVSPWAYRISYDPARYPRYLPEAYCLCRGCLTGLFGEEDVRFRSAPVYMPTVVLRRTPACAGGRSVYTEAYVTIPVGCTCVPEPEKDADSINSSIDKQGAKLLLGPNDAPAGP

T4: human IL-17C (human, UniProt Q9P0M4 19-197)
T4 construct: expressed in E. coli; also called hIL-17C
T4 sequence (looked up): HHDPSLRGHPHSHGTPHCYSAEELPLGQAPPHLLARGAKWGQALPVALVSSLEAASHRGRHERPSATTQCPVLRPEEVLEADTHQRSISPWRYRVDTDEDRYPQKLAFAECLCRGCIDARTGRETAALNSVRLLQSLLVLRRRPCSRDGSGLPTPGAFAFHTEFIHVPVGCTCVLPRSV

T5: human IL-17E (human, UniProt Q9H293 33-177)
T5 construct: expressed in E. coli; also called hIL-17E
T5 sequence (looked up): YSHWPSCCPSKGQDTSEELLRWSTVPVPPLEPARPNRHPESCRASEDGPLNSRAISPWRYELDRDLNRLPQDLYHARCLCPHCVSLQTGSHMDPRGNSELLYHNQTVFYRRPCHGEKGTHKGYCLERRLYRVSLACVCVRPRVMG

T6: human IL-17B (human, UniProt Q9UHF5 21-180)
T6 construct: expressed in E. coli; also called hIL-17B
T6 sequence (looked up): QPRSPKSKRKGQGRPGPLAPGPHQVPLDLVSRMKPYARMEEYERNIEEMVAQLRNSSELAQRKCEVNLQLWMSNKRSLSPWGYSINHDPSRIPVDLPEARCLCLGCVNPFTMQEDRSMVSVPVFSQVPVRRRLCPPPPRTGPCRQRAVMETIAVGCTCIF

T7: human IL-17F (human, UniProt Q96PD4 31-163)
T7 construct: made in Hek293 cells (GenBank AF384857); also called hIL-17F; hIL17F
T7 sequence: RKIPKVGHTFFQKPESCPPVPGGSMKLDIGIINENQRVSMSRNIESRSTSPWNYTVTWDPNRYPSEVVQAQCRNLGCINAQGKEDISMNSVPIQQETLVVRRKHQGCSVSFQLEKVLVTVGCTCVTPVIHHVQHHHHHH

T8: rat IL-17A (rat, UniProt Q61453 18-150, limits assumed)
T8 sequence (looked up): T2 sequence (looked up)

T9: mouse IL-17A (mouse, UniProt Q62386 26-158)
T9 sequence (looked up): T1 sequence (looked up)

T10: marmoset IL-17A (marmoset, IL-17A is a disulfide-linked homodimer. One chain is given.)
T10 chain: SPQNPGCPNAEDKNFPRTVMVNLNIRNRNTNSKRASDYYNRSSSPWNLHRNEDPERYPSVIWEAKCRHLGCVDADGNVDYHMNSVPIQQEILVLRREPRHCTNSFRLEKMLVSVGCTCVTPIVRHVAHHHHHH

T11: rat IL-17F (rat, UniProt Q5BJ95 29-161)
T11 sequence (looked up): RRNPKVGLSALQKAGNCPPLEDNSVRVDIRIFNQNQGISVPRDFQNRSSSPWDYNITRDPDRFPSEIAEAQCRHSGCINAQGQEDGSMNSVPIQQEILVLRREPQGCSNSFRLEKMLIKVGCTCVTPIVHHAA

T12: mouse IL-17F (mouse, UniProt Q7TNI7 29-161)
T12 sequence (looked up): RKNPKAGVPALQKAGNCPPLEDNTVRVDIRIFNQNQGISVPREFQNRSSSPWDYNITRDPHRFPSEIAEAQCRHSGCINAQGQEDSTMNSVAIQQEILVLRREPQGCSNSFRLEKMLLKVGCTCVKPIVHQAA

B1: 13B05 (VHH)
VHH: EVQLVESGGRLVQAGGSLRLSCAASGRTFTSYPMGWFRQAPGKEREFVAAISMSGDDTAYTDFVRGRFTISRDDARNTVYLHMTSLKPEDTAVYYCAARTSYDGTYDYIDDYSYWGQGTQVTVSS
notes: Class 4
B2: 02A08 (VHH)
VHH: EVQLVESGGGVVQPGGSLRLSCADSERSFSFNAMGWFRQAPGKEREFVAAISATGDDTYYADSVKGRFAISRDTARNTVYLQMNSLKPEDTAVYYCGARVNFDGTVSYTNDYAYWGQGTQVTVSS
notes: Class 2
B3: 13E05 (VHH)
VHH: EVQLVESGGGKVQAGDSLTLSCVASGGTFSNYAAWFRQAPGKDRRELVVSIFRTGSITYTADSVKGRFTASRVNTKNTVYLQMNSLKPEDTAVYYCASAYNPGVGYDYWGQGTQVTVSS
notes: Class 4
B4: 11C08 (VHH)
VHH: EVQLVESGGGLVQAGGSLRLSCAASGVIFRLNAMGWYRAAPGKQRELVAIIVNGGSTNYADSVKGRFTISRDSAKNAVYLQMNSLKPEDTAVYYCYYNIPGDVYWGQGTQVTVSS
notes: Class 4
B5: 03C07 (VHH)
VHH: EVQLVESGGGLVQAGGSLRLSCAASGFTFDDYAIGWFRQAPGKEREAVSCFSSSDGSIYYADSVKGRFTISSDNAKNTVYLQMNSLKPEDTAVYYCAGGGGSYYYTQLNYCYDMDYWGKGTQVTVSS
notes: Class 2
B6: 02A08 (VHH)
VHH: B2 VHH
notes: Class 2
B7: IL17MS3038 (VHH)
VHH: EVQLVESGGGLVQAGGSLRLSCAASGRTYDAVGWLRQAPGKEREFVAAISGSGDDTYYADSVKGRFTISKDNAGITMYLQMNSLKPEDTAVYYCATRRGLYYVWDSNDYENWGQGTQVTVSS
notes: variant of IL17MS13E02; Kabat numbering
B8: IL17MS3039 (VHH)
VHH: B7 VHH with V32M, M77V
notes: as for B7
B9: IL17MS3043 (VHH)
VHH: EVQLVESGGGSVQPGGSLRLSCAASGRANSINWFGWFRQTPGKEREFVAGIRWSDAYTEYANSVKGRFTISRDNSKNTVYLQMDSLRPEDTAVYYCVLDLSTVRYWGQGTLVTVSS
notes: variant of IL17MS13B03; Kabat numbering
B10: IL17MS3044 (VHH)
VHH: B9 VHH with S11L, G16D, Y80D
notes: as for B9
B11: IL17MS3050 (VHH)
VHH: B9 VHH with Y80D
notes: as for B9
B12: IL17MS3048 (VHH)
VHH: B9 VHH with G16D, Y80D, D84N
notes: as for B9
B13: IL17MS3045 (VHH)
VHH: B9 VHH with G16D, T40A, Y80D
notes: as for B9
B14: IL17MS3046 (VHH)
VHH: B9 VHH with G16D, N62A, Y80D
notes: as for B9
B15: IL17MS3049 (VHH)
VHH: B9 VHH with G16D, T40A
notes: as for B9

target: T13, human IL-17A (human, UniProt Q16552 24-155); assay: SPR, IL-17A-Nanobody complex over captured IL-17RA
T13 construct: secreted form (GenBank U32659) expressed in Hek293 with C-terminal 6-His; also called hIL-17A; IL-17A-6HIS
T13 sequence (Q16552 other isoform, or with tags, fused parts or gaps): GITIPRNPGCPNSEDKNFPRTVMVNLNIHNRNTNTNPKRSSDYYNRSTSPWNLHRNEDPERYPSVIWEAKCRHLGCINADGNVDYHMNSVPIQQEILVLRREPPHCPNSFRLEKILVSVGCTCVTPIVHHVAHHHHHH
Excerpt: The receptor (IL-17RA or IL-17RC) was captured via its human Fc-tail by an anti-human IgG-Fc antibody coated on the chip.

Binder | % Biacore binding (IL-17A-NB)-IL-17RA [%]
B1 | -0.89
B2 | 0.46
B3 | 0.54
B4 | 3.25
B5 | -0.08

target: T1, mouse IL-17A; assay: binding ELISA
Description: (§1) Binding of a selected panel of anti-IL-17 Nanobodies to IL-17 of other species was assessed using a binding ELISA. […] HRP (horseradish peroxidase) conjugated anti-myc (Serotec, MCA 2200P) was used for detection using esTMB as substrate.

Binder | binding result
B6 | no binding (tested: 250 nM)

target: T2, rat IL-17A; assay: binding ELISA
Description: as §1

Binder | binding result
B6 | no binding (tested: 250 nM)

target: T3, human IL-17D; assay: SPR, cytokine on chip
Excerpt: (§2) Human IL-17B, IL-17C, IL-17D or IL-17E were all expressed in E. coli, and covalently bound to a CM sensor chip surface via amine coupling using EDC/NHS for activation and HCl for deactivation.
(§3) Next, binding buffer was sent over the chip at the same flow rate to allow spontaneous dissociation of bound Nanobody or antibody.

Binder | binding result
B6 | no binding

target: T4, human IL-17C; assay: SPR, cytokine on chip
Excerpt: as §2, §3

Binder | binding result
B6 | no binding

target: T5, human IL-17E; assay: SPR, cytokine on chip
Excerpt: as §2, §3

Binder | binding result
B6 | no binding

target: T6, human IL-17B; assay: SPR, cytokine on chip
Excerpt: as §2, §3

Binder | binding result
B6 | no binding

target: T7, human IL-17F; assay: AlphaScreen hIL-17F-IL-17RC; vs IL17MS13E02

Binder | IC50 fold difference vs WT [fold]
B7 | 3.2
B8 | 1.25

target: T14, human IL-17A (human, UniProt Q16552 24-155); assay: SPR (Biacore) off-rate
T14 construct: secreted form made in Hek293 cells (GenBank U32659); also called hIL-17A; hIL17A
T14 sequence (Q16552 other isoform, or with tags, fused parts or gaps): as above

Binder | koff [s⁻¹]
B9 | 0.000276
B10 | 0.000212
B11 | 0.000267
B12 | 0.000295
B13 | 0.00027
B14 | 0.000281
B15 | 0.00015

target: T15, human IL-17A/F heterodimer (human, UniProt Q16552 24-155; Q96PD4 31-163, limits assumed); assay: SPR (Biacore) off-rate
T15 construct: bought, made in E. coli (R&D Systems 5194-IL/CF); also called hIL-17A/F; hIL17A/F
T15 sequence (Q16552 24-155 limits assumed, chain 1 of 2, one chain of several): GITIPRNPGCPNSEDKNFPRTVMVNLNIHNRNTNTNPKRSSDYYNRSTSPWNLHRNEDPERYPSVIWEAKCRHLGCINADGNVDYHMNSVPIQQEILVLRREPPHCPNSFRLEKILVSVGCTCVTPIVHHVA

Binder | koff [s⁻¹]
B9 | 0.000585
B10 | 0.000253
B11 | 0.000575
B12 | 0.000665
B13 | 0.000616
B14 | 0.000515
B15 | 0.000248

target: T7, human IL-17F; assay: SPR (Biacore) off-rate

Binder | koff [s⁻¹]
B9 | 0.00811
B10 | 0.00776
B11 | 0.00855
B12 | 0.00874
B13 | 0.00794
B14 | 0.00848
B15 | 0.00757

target: T14, human IL-17A; assay: SPR (Biacore) off-rate; remark: another data set of the same source

Binder | koff [s⁻¹]
B7 | 0.000225
B8 | 0.00021

target: T15, human IL-17A/F heterodimer; assay: SPR (Biacore) off-rate; remark: another data set of the same source

Binder | koff [s⁻¹]
B7 | 6.82e-05
B8 | 4.03e-05

target: T7, human IL-17F; assay: SPR (Biacore) off-rate; remark: another data set of the same source

Binder | koff [s⁻¹]
B7 | 0.0101
B8 | 0.00515

target: T8, rat IL-17A; assay: ELISA, coated IL-17A
Description: as §1

Binder | OD [OD]
B1 | 0.003
B2 | 0.002
B3 | 0.003
B4 | 0.002
B5 | 0.003

target: T9, mouse IL-17A; assay: ELISA, coated IL-17A
Description: as §1

Binder | OD [OD]
B1 | -0.006
B2 | -0.001
B3 | 0.004
B4 | -0.005
B5 | -0.004

target: T13, human IL-17A; assay: ELISA, coated IL-17A
Description: as §1

Binder | OD [OD]
B1 | 1.82
B2 | 1.95
B3 | 1.96
B4 | 1.71
B5 | 1.7

target: guinea pig IL-17A (guinea pig); assay: ELISA, coated IL-17A
Description: as §1

Binder | OD [OD]
B1 | 0.001
B2 | 0.002
B3 | 0.006
B4 | 0.002
B5 | 0.004

Target: T10, marmoset IL-17A
Assay: ELISA, coated IL-17A
Description: as §1

Binder | OD [OD]
B1 | 1.91
B2 | 1.95
B3 | 1.89
B4 | 0.671
B5 | 1.7

target: T11, rat IL-17F; assay: ELISA, coated IL-17F;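 further: binding ELISA on coated antigen from various species, with bound Nanobodies revealed by an HRP-linked anti-myc antibody and esTMB substrate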
Description: as §1

Binder | OD [OD]
B1 | 0.0095
B2 | 0.0035
B3 | 0.0025
B4 | 0.0005
B5 | 0.0015

target: T12, mouse IL-17F; assay: ELISA, coated IL-17F;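 further: binding ELISA on coated antigen from various species, with bound Nanobodies revealed by an HRP-linked anti-myc antibody and esTMB substrate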
Description: as §1

Binder | OD [OD]
B1 | 0.0205
B3 | 0.0005
B4 | -0.0025
B5 | 0.0005

— patent publication US20210130452A1 (Merck KGaA, published 2021)
